Test results reported in the nanobody polyreactivity screen of Harvey et al. (2022).

Experiment: yeast display, Sf9 membrane polyspecificity reagent, FACS + sequencing; frameworks hold sequencing errors
How it was run: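 Synthetic nanobody libraries on Saccharomyces cerevisiae BJ5465 were galactose-induced for 36–48 hours, stained 1 hour at 4 °C with 10% biotinylated, detergent-solubilized Sf9 membrane reagent and enriched on streptavidin microbeads. FACS then separated cells into low and high (top ~1%) gates by anti-HA (expression) and streptavidin (reagent binding) fluorescence. Genes were colony-PCR amplified, MiSeq 2 × 250 sequenced and CDR-length filtered. A clone's polyreactivity label is that of its gate of origin.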

Sequence	polyreactivity (PSR sort gate)
QVQLVESGGGLVQAGGSLRLSCSASGSIFSANVMGWYRQAPGKDRELVAAIRRGGTTYYADSVKGRFTISRDNAKNTVYLQMNSLKPEDNAVYYCATDGIFGSYLRFEVAYDYWGQGTQVTVSS	low polyreactivity
QVQLVESGGGLVQAGGSLRLSCSASGSIFVWYDMGWYRQAPGKERELVATISLSGVSTYYADSVKGRFTISRDNAKNTVYLQMNSLKPEDTAVYYCNKDDPVDGPLYFRKYDYWGQGTQVTVSS	low polyreactivity
QVQLVESGGGLVQAGGSLRLSCSASGSTFGDYAMRWYRQAPGKREFVAAISFSGGNTYYADSVKVRFTISRDNAKNTVYLQMNSLKPEDTAVYYCNADWDWFYSTGSLGFPDFYYWGQGTQVSVSS	low polyreactivity
QVQLVESGGGLVQAGGSLRLSCSASGSTFGRYVMGWYRQPPGKERELVAAISKNAGSTYYADSVKGRFTISRDNAKNTVYLQMNSLKPEDTAVYYCNTVYYWYSPLNYWGQGTQVTVSS	high polyreactivity
QVQLVESGGGLVQAGGSLRLSCSASGSTFHYNAMGWYRQAQGKERELVAYISWRGASKYDADSVKGRFTISRDNAKNTVYLQMSSMKTEDTAVFFFNAVLTSYWYNSYKSRGDYWGQGTLVTVSS	high polyreactivity
QVQLVESGGGLVQAGGSLRLSCSASGSTFRVYAMGWYRQAPGKERELVAAISWSGGRTYYADSVKGRFTISRDNAKNTVYLQMNSLKPEDTAVYYCAADTYGRYDYWGQGTQVTVSS	high polyreactivity
QVQLVESGGGLVQAGGSLRLSCSASGSTIPVYAMGWYRQPPGKERELVAAITGSGARTYYADSVKGRFTFSRDNAKNTVYLQMNSLKPEDTAVYYCAKRTVIAVYGFPYRYGMNYWGQGTQVTVSS	high polyreactivity
QVQLVESGGGLVQAGGSLRLSCTASGIIFGTYAMGWYRQAPGKERELVAAISSSGVSTYYADSVKGRFTISRDNAKYTDYLQMNSLKPEDTAVYYCAAPLHYGYYYCGQGTQVTVSS	high polyreactivity
QVQLVESGGGLVQAGGSLRLSCVASGLTQPSAIGWYRHAPGKERELVPRISWRGASTYYADSVKGRFTISRDTAKNNFYLQINSLKPEDTAVYYCAARSTIQRRGYYGYRVGRSEYGYWGQGTQVTVSS	low polyreactivity
QVQLVESGGGLVQAGGSLRLSCVASGRIFLTYAMGWYRQAPGKERELVAAISYSGASTYYADSVKGRFTISRDNAKNTVYLQMNSLKPEDTAVYYCATERVGTPRMNYWGQGTQVTLSS	high polyreactivity
QVQLVESGGGLVQAGGSLRLSCVASGRTFGNKAMGWYRQAPGKERELVAAITSGGSTNYADSVKGCFTISRDNAKNTVYLQMNSLKPEDTAVYYCAAKQYRAGGGYWGQGTQVTVSS	high polyreactivity
QVQLVESGGGLVQAGGSLRLSCVASGRTFSRYAMGWYRQAPGKERELVAAISRRGGSTYYADSVKGRFTISRDNAKNTVYLQMNRLKPEDTAVNYCAAGYITCGSGNWVVTPYDYWGQGTQVTVSS	high polyreactivity
QVQLVESGGGLVQAGGSLRLSCVPPDMGWYRQAPGKERELVAAISRGGITNYADSVKRRFTISRDNAKNTVYLQMNSLKPEDTAVYYCAAEYTYYSYGGNYDYWGQGTQVTVSS	low polyreactivity
QVQLVESGGGLVQAGGSLRLSFAACGSIFTVYTMGWYRQAPGKERELVAAINSRGGTTYYADSVKGRFTISRDTAKNTVYLQMNSLKPEDTAVYYCAADWGYKDFGYWGQGTQVTVSS	high polyreactivity
QVQLVESGGGLVQAGGSLRLSFAASGFTFTLYAMGLYRQAPGKEREFVAAITARGGSTYYADSVKGRFTISRDNAKNTVYLQMNSLKPEDTAVYYCNKEYGSRRYPYRYNYWGQGTQVTVSS	high polyreactivity
QVQLVESGGGLVQAGGSLRLSFAASGITFGYYDMGWYRQAPGKERELVASISSGGNTNYADSVKGRFTISRDNAKNTVYLQMNSLKPEDTAVYYCNVRYWGFYDYDYWGQGTQVTVSS	low polyreactivity
QVQLVESGGGLVQAGGSLRLSFAASGITFVRYAMGWYRQPPGKERALVAAISRSGTSTYSADSVKGRFTISRDNAKNTVYLQMNSLKPEDTAVYYCYVRRYDYWGQGTQVTVSS	high polyreactivity
QVQLVESGGGLVQAGGSLRLSFAASGLIFGYYTMGWYTQAPGKERELVAAITGIADSTYYADSVKGRFTISRDNAKNTVYLQMNSLKPEDTAVYYCAADKYVAEYDYWGQGTQVTVSS	low polyreactivity
QVQLVESGGGLVQAGGSLRLSFAASGLTFHYYAMGWYIQEPGKERELVAVISSGGSTYYAYSVKGRFTISRDNAKNTVYLQMNSLKPEDTAVYYCAALSSRTYKTGYYTYDYWGQGTQVTVSS	low polyreactivity
QVQLVESGGGLVQAGGSLRLSFAASGRIFDVYAMGRYRQAPGKERELVAAITWSGGRTYYADSVKGRFTLSRDNAKNTVYLQMNSLKPEDTAVYYCAAEKPYVRGYLGTYDYWGQGTQVTVSS	low polyreactivity
QVQLVESGGGLVQAGGSLRLSFAASGRIFGWYAIGGYRKAAGTEREVVAAISTSGVRTYYADSVKGRFTISRDNAKITVYLQMKSLKPEDTAVYYCAARYIRAYSRDYWGQGTQVTVSS	high polyreactivity
QVQLVESGGGLVQAGGSLRLSFAASGRIFLYNTMGWYRQAPGKERELVARISWSGGSTKYADSVKGRFTISRDNAKNTVYLQMNSLKPEDTAVYYCNAGYFTEYNSWGQGTQVTVSS	high polyreactivity

Sequence	polyreactivity (PSR sort gate)
QVQLVESGGGLVQAGGSLRLSFAASGRTFHGYAMGWYRQAPGKERELVARINWSDGRTYYADSVKGRFTISRDNAKNTVYLQMNSLKPEDTAVYYCAADKTVSYAPAWYYYWGQGTHVTVSS	low polyreactivity
QVQLVESGGGLVQAGGSLRLSFAASGSIFYRNSMGWYRQAPGKERELVAAISWSGASTYYADSVKGRFTISRDNAKNTVYLQMNSLKPEETAVYYCYAGKYAYLWLKLFDPKLDYWGQGTQVTVSS	low polyreactivity
QVQLVESGGGLVQAGGSLRLSFAASGSTFRYNTRGWYRQAPGKEREVVATITWDTDSTYYADSVKGRFTISRDNAKNTVYLQMNSLKPEDTAVYYCAAETTWADKSYHYLQEYNYCGQGTQVTVSS	low polyreactivity
QVQLVESGGGLVQAGGSLRLSFAASGSTFTINAMGWYRPAPGKERELVAAINDGHDTYYADSVKGRFTISRDNAKNTVYLQMNSLKPEDTAVYFCAADIIYGYEVYTYTSDYWGQGTQVTVSS	low polyreactivity
QVQLVESGGGLVQAGGSLRLSFAASGSTFWLYPMGWYRQATAKDREFVATISSSTTYYADSVKGRFTISRDNAKNTVYLQMNCLKAEDTEVYYCAKQHGLTSGGSRTDYWGQGTQGTVSS	low polyreactivity
QVQLVESGGGLVQAGGSLRLSFAASGYTFAGNAMGWYRQAPGKERELVAVITYSGVSTYYADSVKGRFTISRDNAKNTVYLQMNSLKPEDTAVYYCNAVRERYASDYWGQGTQVTVSS	low polyreactivity
QVQLVESGGGLVQAGGSLRLSFADSGLILNFYAKSSYRQAPGKERELVAAISWNAGSTYYADSVKGRFTISREKSMNTGYVQMKSLKPEDTAVYYCAVLPGRYDKTASHYDYWGQGTQVTVSS	low polyreactivity
QVQLVESGGGLVQAGGSLRLSFADSGYNFPLYAMGWYIQAPGKERELVADINIGGASTYYADSVKGRFTISRDNAKNTFYLQMNSLKPEDTAVYSCAARDCYQRRQRRYDYWGQGTQVTVSS	low polyreactivity
QVQLVESGGGLVQAGGSLRLSFDASGFISGDNTMGWYRQAPGKERELVAAINSGGSTYYADSVKGRFTISRDNAKNTFYLQMNSLKPEDTAVYYCAADYSTWLRAYDFWGQGTQVTVSS	low polyreactivity
QVQLVESGGGLVQAGGSLRLSFSASGRTFPFYAMGWYRQEPGKERDLVAAITVSGGSTYYADSVKGRFTISRDNAKNTVYLQMNSLKPVDTAVYYCNAKRSDQSSKTFNYWGQGTQVTVSS	low polyreactivity
QVQLVESGGGLVQAGGSLRLSGAASGFIFVRYAMGWYRQAPGKERELVAAITRRGGSTHYADSVKGRFTISRDNAKNTVYLQMNSLTPEDTAVYYCAAGRQYYYLDRFPRVQGDYWGQGTQVTVSS	high polyreactivity
QVQLVESGGGLVQAGGSLRLSGAASGFISFPYAMGWDTQATGKERELVASITRSGGNTYYADSVKGRFTISRDNEKNTVYLQMNSLKPEDTAVYYCNAQIYTYRSGRGYSRMDYWGEGTQVTVSS	high polyreactivity
QVQLVESGGGLVQAGGSLRLSGAASGIIVPDYAMGWNKQAPGKERELVPDISFSAGSTYYADSVKGRFTISRDNAKNTVYLQMNSLKPDDTAVYVCAADQTSSYYDPWGDYWGQGTQVTVSS	low polyreactivity
QVQLVESGGGLVQAGGSLRLSGAASGRTFPYNTMGWYRQAPGKEWELVASITYTDGSTSYAYSVKGRFTISRDNAKNTVYLQMNCLKPEDTAVYYCAADYYAHQDYRFDYCGQGTQVTVSS	low polyreactivity
QVQLVESGGGLVQAGGSLRLSGAASGRTFYDYAMGWYRQAPGKERELVAAISWIDGSTYYADSVKGRFTISRDNAKNTVYLLMNSLKPEDTAVYYCAARRLVYYRKVKELDYWGQGTQVTVSS	high polyreactivity
QVQLVESGGGLVQAGGSLRLSGAASGSILWSYALGCYIQAPGKERELVAAIRSGGSTYYADSVKGRFTISRDNAKNTVYFQMNSLKPEDTAVLYCNATYAPLFEYDYWGQGTQVTVSS	low polyreactivity
QVQLVESGGGLVQAGGSLRLSIDASGRIFYPYVMGWYRQAPGQERELVAAISDSTGSTYYADSVKGRFTISRDNAKITVYLEMNSQKPEDTAVFYCAAGWFYATYWRFYYCGQGTQVTVSS	low polyreactivity
QVQLVESGGGLVQAGGSLRLSLLPPDSPSTTMLWDGIDRRLGKKGSWLPVFLPSGGTTYADSVKGRFTISRDNAKNTVYLQMNSLKPEDTAVYYCAASYYRTRWSWMYYWGQGTQVTLSS	low polyreactivity
QVQLVESGGGLVQAGGSLRLSRAASGATFYFNAMGWYSQAHGKERELVAGITYSGDSTYYADSVKGRFTLSRDNAKNPVYLQMNSLKPEDTAVYYCAADVDYDLDGDYWGQGTQVTVSS	low polyreactivity
QVQLVESGGGLVQAGGSLRLSSAASGFIFATYAMGWYRQAPGTERELVAAISQSGGGTYYADSVKGRFTISRDNAKNTVYLQMNSLKPEDTAVYYCAVDVSEWYHYDLYYWYYYWGQGTQVTVSS	high polyreactivity
QVQLVESGGGLVQAGGSLRLSSAASGFIFSTYAMGWYRQAPGKEREFVAAITRTGTRTYYADSVKGRFTISRDNAKNTVYLQMTSLKPEDTAVYYCAARAGVEAYGSRYGYWGQGTQGTVSS	high polyreactivity
